The target of the data set is FvWRKY75 (Fragaria vesca, UniProt A0A1S5SLB0 1-190). The data set can be described thus: EMSA; EMSA Kit (Beyotime), according to Wang, Shi, et al. 2022; buffer, salt, pH and temperature not stated. The settings on record: protein: recombinant; tags: His (as stated); blunt.
Chain of FvWRKY75 (A0A1S5SLB0 entry or part of it): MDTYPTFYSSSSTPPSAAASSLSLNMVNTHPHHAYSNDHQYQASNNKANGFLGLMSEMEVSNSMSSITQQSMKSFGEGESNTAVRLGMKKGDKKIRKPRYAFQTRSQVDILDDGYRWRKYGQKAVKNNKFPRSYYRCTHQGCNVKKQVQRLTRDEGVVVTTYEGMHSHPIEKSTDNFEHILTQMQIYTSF

B1: FvPR10.14-P (FvWRKY75 probe) (dsDNA)
DNA 1: ATATATGGGATAGCCAATGTTGACTGCTCGACATTACGTGTATA
DNA 2: TATACACGTAATGTCGAGCAGTCAACATTGGCTATCCCATATAT
B1: the binding result is reported as “binds”.

Source of the values: article PMC12686569, “FaMYB63 and FvWYRKY75 Activate FvPR10.14 Boosting Strawberry Immunity Against Powdery Mildew”.
